Assay results from the nanobody polyreactivity screen of Harvey et al. (2022).

Experiment: yeast display, Sf9 membrane polyspecificity reagent, FACS + sequencing; frameworks hold sequencing errors
In short: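 Sorting gates, low and high (top ~1%), were placed on anti-HA fluorescence to track expression and on streptavidin fluorescence to track reagent binding. A clone's polyreactivity label is taken from the gate it came out of. The reagent was 10% biotinylated, detergent-solubilized Sf9 membrane, applied for 1 hour at 4 °C to galactose-induced yeast display cells.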

Sequence: QVQLVESGGGLVQAGGSLHLSCAASGRIFGKYAMGWYRQAPGKEREFVAAIRSSDGNTYYADSVKGRFTISRDNAKNTVYLQMNSLKPEDTAVYYCAARGTLWTYGYWGQGTQVTVSS
- polyreactivity (PSR sort gate): high polyreactivity

Sequence: QVQLVESGGGLVQAGGSLLLICAASGSTFYLNAMGWYRQAPGKERELVAAITGRSGSTYYADSVKVRFTISRDNAKNTVYLQMNSLKPEDTAVYYCAADYSPWRSDFDYWGQGTQVTVSS
- polyreactivity (PSR sort gate): low polyreactivity

Sequence: QVQLVESGGGLVQAGGSLLLSCAAARIIFKYNAMGWYRQAPGKDRELVARITARGGRTNYADSVKGRFTISRDNAKHTVYLQMNSLKPEDTAVYYCAKKLRGWHTIITDYDYWGQGTQVTVSS
- polyreactivity (PSR sort gate): low polyreactivity

Sequence: QVQLVESGGGLVQAGGSLLLSCAASGFIFAGYAMGWYRQAPGKERELVAPISKRGGTTYYADSVKGRFTISRDNAKNTVYLQMNSLKPEDTAVYYCNAKRTYRVVWASSYEYDYWGQGTQVTVSS
- polyreactivity (PSR sort gate): high polyreactivity

Sequence: QVQLVESGGGLVQAGGSLLLSCAASGFTFRYYAMGWYRQAPGTERELVAAISSGGNTRYADSVKGRFTISRDNAKITVYLQLNSLKPEDTAVYYCARRPGAPRESYDYWGQGTQVTVSS
- polyreactivity (PSR sort gate): high polyreactivity

Sequence: QVQLVESGGGLVQAGGSLLLSCAASGRIFDLNAMGWYRQAPGKERELVAAITNTGSTNYADSVKGRFTISRDNAKNTVYLQMNSLKPEDTAVYYCARTYWLRYYGYRDDEYDYWGQGTQVTVSS
- polyreactivity (PSR sort gate): low polyreactivity

Sequence: QVQLVESGGGLVQAGGSLLLSCAASGRIFRSYTMGWYRQAPGKERELVAAITSYGGRTYYADSVKGRFTISRDNAKNTVYLQMNRLKPEDTAVYYCAAHLSRDKFDYWGQGTQVTVSS
- polyreactivity (PSR sort gate): low polyreactivity

Sequence: QVQLVESGGGLVQAGGSLLLSCAASGRIFSYNAMGWYRQAPGKERELVAVISRSDTSTYYADSVKGRFTISRDNAKNTVYLQMNSLKPEDTAVYYCNADGPSYFRYSGYYYWGQGTQVTVSS
- polyreactivity (PSR sort gate): low polyreactivity

Sequence: QVQLVESGGGLVQAGGSLLLSCAASGRIFYRYAMGWYRQAPGKERELVAAISRGGSTYYADSVKGRYTISRDNAKNTVYLQMNSLKPEDTAVYYCAKDGYWGYDYWGQGTQVTVSS
- polyreactivity (PSR sort gate): high polyreactivity

Sequence: QVQLVESGGGLVQAGGSLLLSCAASGRTFRPYSMGWYRQAPGKERELVAAITRSGGSTYYADSVKGRFTISRDNEKNTVYLQMNSLKPEDTAVYYCAAYNTYSDTYDYWGQGTQVTVSS
- polyreactivity (PSR sort gate): low polyreactivity

Sequence: QVQLVESGGGLVQAGGSLLLSCAASGRTLGKYAMGWYRQAPGKERELVAAISSGGGSTYYSDSVKGRFTISRDNAKNTVYLLMNSLKPEDTAVYYCAADSVSRYNGYDYWGQGTQVTVSS
- polyreactivity (PSR sort gate): high polyreactivity

Sequence: QVQLVESGGGLVQAGGSLLLSCAASGSIFIYYTIGWYRQARGKARELVAAITRSGGDTYYADSVKGRFTISRDNAKNTVYLQMNSLKPEDTAVYYCAADSWLRYGTYEYWGQGTQVTVSS
- polyreactivity (PSR sort gate): high polyreactivity

Sequence: QVQLVESGGGLVQAGGSLLLSCAASGSIFRYYAMGWSRQAPGKERELVAAISSNGASTYYADSVKGRFTISRDNAKNTVYLQKNSLKPEVSGVYYCAARFRRAPGYYWGQGTQVTVSS
- polyreactivity (PSR sort gate): high polyreactivity

Sequence: QVQLVESGGGLVQAGGSLLLSCAASGSIFYRYAMGWDRQAPGKERELVAAISWNGGTTYYADSVKGRFTISRDNAKNTVYLQMNSLKPEDTAVYYCAADRPTSVYLFDYWGQGTLVTVSS
- polyreactivity (PSR sort gate): high polyreactivity

Sequence: QVQLVESGGGLVQAGGSLLLSCAASGSIFYYYAMGWYRQAPGKERELVAAISKSGGSTYADSVKGRFTISRDNAKNTVYLQMNSLKPEDTAVYYCAKEFKYWGYPYDYWGQGTQVTVSS
- polyreactivity (PSR sort gate): low polyreactivity

Sequence: QVQLVESGGGLVQAGGSLLLSCAASGSILRMYVMGWYRQAPGKESELVADRSDRGGSTYYADSVKGRFTISRDNAKNTVYLQMNSLKPEDTAVYYCAKDSETAGATYTEYDYWGQGTQVTVSS
- polyreactivity (PSR sort gate): low polyreactivity

Sequence: QVQLVESGGGLVQAGGSLLLSCAASGSTFISYAMGWYRQAPGKERELVAAITWRGGSTYNADSVKGRFTISRDNAKNTVYLQMNSMKPEDTAVYYCAAEFYYYYGRYDYWGQGTQVTVSS
- polyreactivity (PSR sort gate): high polyreactivity
